Assay results from US20180155451A1 (published 2018).

T1: FcγRIIa R (human, UniProt P12318 34-217)
T1 construct: extracellular domain; also called FcgRIIa R type; 2aR
T1 sequence (looked up): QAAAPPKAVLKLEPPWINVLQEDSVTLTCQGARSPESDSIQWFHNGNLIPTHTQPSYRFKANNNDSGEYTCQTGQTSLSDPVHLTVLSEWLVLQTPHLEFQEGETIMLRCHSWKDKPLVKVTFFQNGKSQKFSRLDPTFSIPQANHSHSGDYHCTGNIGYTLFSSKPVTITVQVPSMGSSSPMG

B1: GpH7-A5/GpH7-B3 variant L328_13S/GpL16-k0 (antibody, human IgG1, kappa)
heavy 1: not shown
heavy 2: not shown
light: DIVMTQSPLSLPVTPGEPASISCQASESLVHSNRNTYLHWYLQKPGQSPQLLIYKVSNRFSGVPDRFSGSGSGTDFTLKISRVEAEDVGVYYCSQNTHVPPTFGQGTKVEIERTVAAPSVFIFPPSDEQLKSGTASVVCLLNNFYPREAKVQWKVDNALQSGNSQESVTEQDSKDSTYSLSSTLTLSKADYEKHKVYACEVTHQGLSSPVTKSFNRGEC
notes: also called He Ab L328_13S
B2: GpH7-A5/GpH7-B3 variant L235_20W/GpL16-k0 (antibody, human IgG1, kappa)
heavy 1: not shown
heavy 2: not shown
light: B1 light
notes: also called He Ab L235_20W
B3: GpH7-A5/GpH7-B3 variant K334_13S/GpL16-k0 (antibody, human IgG1, kappa)
heavy 1: not shown
heavy 2: not shown
light: B1 light
notes: also called He Ab K334_13S
B4: GpH7-A5/GpH7-B3 variant P331_16H/GpL16-k0 (antibody, human IgG1, kappa)
heavy 1: not shown
heavy 2: not shown
light: B1 light
notes: also called He Ab P331_16H
B5: GpH7-A5/GpH7-B3 variant N325_01G/GpL16-k0 (antibody, human IgG1, kappa)
heavy 1: not shown
heavy 2: not shown
light: B1 light
notes: also called He Ab N325_01G
B6: GpH7-A5/GpH7-B3 variant P331_02A/GpL16-k0 (antibody, human IgG1, kappa)
heavy 1: not shown
heavy 2: not shown
light: B1 light
notes: also called He Ab P331_02A
B7: GpH7-A5/GpH7-B3 variant S239_10E/GpL16-k0 (antibody, human IgG1, kappa)
heavy 1: not shown
heavy 2: not shown
light: B1 light
notes: also called He Ab S239_10E
B8: GpH7-A5/GpH7-B3 variant P238_04F/GpL16-k0 (antibody, human IgG1, kappa)
heavy 1: not shown
heavy 2: not shown
light: B1 light
notes: also called He Ab P238_04F
B9: GpH7-A5/GpH7-B3 variant N325_03V/GpL16-k0 (antibody, human IgG1, kappa)
heavy 1: not shown
heavy 2: not shown
light: B1 light
notes: also called He Ab N325_03V
B10: GpH7-A5/GpH7-B3 variant K334_05P/GpL16-k0 (antibody, human IgG1, kappa)
heavy 1: not shown
heavy 2: not shown
light: B1 light
notes: also called He Ab K334_05P
B11: GpH7-A5/GpH7-B3 variant P271_08L/GpL16-k0 (antibody, human IgG1, kappa)
heavy 1: not shown
heavy 2: not shown
light: B1 light
notes: also called He Ab P271_08L
B12: GpH7-A5/GpH7-B3 variant N325_09D/GpL16-k0 (antibody, human IgG1, kappa)
heavy 1: not shown
heavy 2: not shown
light: B1 light
notes: also called He Ab N325_09D
B13: GpH7-A5/GpH7-B3 variant S267_03V/GpL16-k0 (antibody, human IgG1, kappa)
heavy 1: not shown
heavy 2: not shown
light: B1 light
notes: also called He Ab S267_03V
B14: GpH7-A5/GpH7-B3 variant K334_04F/GpL16-k0 (antibody, human IgG1, kappa)
heavy 1: not shown
heavy 2: not shown
light: B1 light
notes: also called He Ab K334_04F
B15: GpH7-A5/GpH7-B3 variant L234_09D/GpL16-k0 (antibody, human IgG1, kappa)
heavy 1: not shown
heavy 2: not shown
light: B1 light
notes: also called He Ab L234_09D
B16: GpH7-A5/GpH7-B3 variant S239_08L/GpL16-k0 (antibody, human IgG1, kappa)
heavy 1: not shown
heavy 2: not shown
light: B1 light
notes: also called He Ab S239_08L
B17: GpH7-A5/GpH7-B3 variant N325_07I/GpL16-k0 (antibody, human IgG1, kappa)
heavy 1: not shown
heavy 2: not shown
light: B1 light
notes: also called He Ab N325_07I
B18: GpH7-A5/GpH7-B3 variant N325_20W/GpL16-k0 (antibody, human IgG1, kappa)
heavy 1: not shown
heavy 2: not shown
light: B1 light
notes: also called He Ab N325_20W
B19: GpH7-A5/GpH7-B3 variant L235_04F/GpL16-k0 (antibody, human IgG1, kappa)
heavy 1: not shown
heavy 2: not shown
light: B1 light
notes: also called He Ab L235_04F
B20: GpH7-A5/GpH7-B3 variant S239_18N/GpL16-k0 (antibody, human IgG1, kappa)
heavy 1: not shown
heavy 2: not shown
light: B1 light
notes: also called He Ab S239_18N
B21: GpH7-B3 variant N325_06M/GpL16-k0 (antibody, human IgG1, kappa)
heavy: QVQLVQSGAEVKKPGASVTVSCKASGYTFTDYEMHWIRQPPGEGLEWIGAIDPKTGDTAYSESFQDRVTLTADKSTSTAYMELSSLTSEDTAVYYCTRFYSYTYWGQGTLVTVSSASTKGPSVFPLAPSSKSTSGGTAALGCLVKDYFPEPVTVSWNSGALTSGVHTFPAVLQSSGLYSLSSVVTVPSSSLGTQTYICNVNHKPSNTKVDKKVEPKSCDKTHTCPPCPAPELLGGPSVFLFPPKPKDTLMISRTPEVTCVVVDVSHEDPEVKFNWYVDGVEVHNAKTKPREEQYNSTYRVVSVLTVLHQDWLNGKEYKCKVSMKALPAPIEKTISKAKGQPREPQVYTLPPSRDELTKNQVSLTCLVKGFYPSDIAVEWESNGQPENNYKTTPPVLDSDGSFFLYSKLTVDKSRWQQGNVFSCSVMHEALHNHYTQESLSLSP
light: B1 light
notes: also called Ho Ab N325_06M
B22: GpH7-B3 variant A330_01G/GpL16-k0 (antibody, human IgG1, kappa)
heavy: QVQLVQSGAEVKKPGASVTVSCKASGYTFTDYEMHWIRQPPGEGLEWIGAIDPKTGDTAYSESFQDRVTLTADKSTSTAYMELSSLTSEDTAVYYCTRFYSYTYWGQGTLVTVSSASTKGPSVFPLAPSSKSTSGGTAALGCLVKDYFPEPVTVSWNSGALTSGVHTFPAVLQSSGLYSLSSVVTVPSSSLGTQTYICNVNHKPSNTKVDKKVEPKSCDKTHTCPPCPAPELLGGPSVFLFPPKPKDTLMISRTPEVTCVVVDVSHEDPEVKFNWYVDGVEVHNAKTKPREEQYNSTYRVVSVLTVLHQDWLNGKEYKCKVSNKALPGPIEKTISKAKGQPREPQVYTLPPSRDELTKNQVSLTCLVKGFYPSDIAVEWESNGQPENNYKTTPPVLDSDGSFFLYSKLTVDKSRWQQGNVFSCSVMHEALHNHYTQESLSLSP
light: B1 light
notes: also called Ho Ab A330_01G
B23: GpH7-B3 variant A327_10E/GpL16-k0 (antibody, human IgG1, kappa)
heavy: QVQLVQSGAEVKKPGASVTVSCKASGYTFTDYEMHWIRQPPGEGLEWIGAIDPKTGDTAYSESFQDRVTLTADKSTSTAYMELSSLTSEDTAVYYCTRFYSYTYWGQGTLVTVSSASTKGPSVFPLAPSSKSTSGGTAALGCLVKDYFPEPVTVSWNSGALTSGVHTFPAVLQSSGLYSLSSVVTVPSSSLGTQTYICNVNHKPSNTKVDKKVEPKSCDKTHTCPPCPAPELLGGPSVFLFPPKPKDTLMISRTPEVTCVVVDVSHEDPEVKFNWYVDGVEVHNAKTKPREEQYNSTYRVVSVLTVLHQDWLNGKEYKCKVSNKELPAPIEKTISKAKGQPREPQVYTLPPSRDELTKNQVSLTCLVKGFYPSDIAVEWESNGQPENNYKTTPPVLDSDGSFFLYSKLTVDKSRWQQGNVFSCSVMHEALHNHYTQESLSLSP
light: B1 light
notes: also called Ho Ab A327_10E
B24: GpH7-B3 variant A327_09D/GpL16-k0 (antibody, human IgG1, kappa)
heavy: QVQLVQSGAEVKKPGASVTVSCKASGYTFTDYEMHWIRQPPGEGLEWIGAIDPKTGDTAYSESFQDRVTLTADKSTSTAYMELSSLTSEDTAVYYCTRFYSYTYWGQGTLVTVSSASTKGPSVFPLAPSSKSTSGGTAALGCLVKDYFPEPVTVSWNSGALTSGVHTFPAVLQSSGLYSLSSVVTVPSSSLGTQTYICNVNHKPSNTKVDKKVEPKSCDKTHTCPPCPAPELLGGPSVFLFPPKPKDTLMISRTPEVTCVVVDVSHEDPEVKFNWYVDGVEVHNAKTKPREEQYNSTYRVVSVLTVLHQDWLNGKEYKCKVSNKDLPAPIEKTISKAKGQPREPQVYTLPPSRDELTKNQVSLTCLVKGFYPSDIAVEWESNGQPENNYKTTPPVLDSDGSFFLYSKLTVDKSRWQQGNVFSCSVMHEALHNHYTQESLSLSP
light: B1 light
notes: also called Ho Ab A327_09D
B25: GpH7-B3 variant A330_15Y/GpL16-k0 (antibody, human IgG1, kappa)
heavy: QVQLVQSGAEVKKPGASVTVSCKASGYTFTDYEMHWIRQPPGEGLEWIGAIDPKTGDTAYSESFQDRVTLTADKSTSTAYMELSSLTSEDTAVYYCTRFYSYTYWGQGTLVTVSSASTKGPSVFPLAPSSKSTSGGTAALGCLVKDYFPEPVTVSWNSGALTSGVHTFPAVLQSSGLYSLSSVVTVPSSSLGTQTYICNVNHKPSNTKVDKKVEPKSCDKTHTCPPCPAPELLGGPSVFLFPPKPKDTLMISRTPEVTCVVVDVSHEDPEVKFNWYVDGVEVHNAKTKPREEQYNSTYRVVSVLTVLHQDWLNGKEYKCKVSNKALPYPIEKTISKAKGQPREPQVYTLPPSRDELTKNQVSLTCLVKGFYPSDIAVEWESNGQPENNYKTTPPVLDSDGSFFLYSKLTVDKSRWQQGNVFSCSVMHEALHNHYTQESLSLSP
light: B1 light
notes: also called Ho Ab A330_15Y
B26: GpH7-B3 variant A330_11K/GpL16-k0 (antibody, human IgG1, kappa)
heavy: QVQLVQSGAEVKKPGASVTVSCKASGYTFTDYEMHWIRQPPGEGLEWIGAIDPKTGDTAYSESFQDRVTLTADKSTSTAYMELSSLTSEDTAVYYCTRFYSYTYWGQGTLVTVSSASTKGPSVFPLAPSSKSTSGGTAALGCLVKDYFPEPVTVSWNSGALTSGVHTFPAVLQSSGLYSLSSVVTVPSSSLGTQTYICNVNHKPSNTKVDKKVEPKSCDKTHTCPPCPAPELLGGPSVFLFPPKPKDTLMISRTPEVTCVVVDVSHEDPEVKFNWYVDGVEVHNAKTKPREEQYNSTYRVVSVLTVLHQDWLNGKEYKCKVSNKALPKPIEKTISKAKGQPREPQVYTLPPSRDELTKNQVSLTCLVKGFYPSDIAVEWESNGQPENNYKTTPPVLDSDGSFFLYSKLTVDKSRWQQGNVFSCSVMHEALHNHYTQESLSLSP
light: B1 light
notes: also called Ho Ab A330_11K
B27: GpH7-B3 variant A330_05P/GpL16-k0 (antibody, human IgG1, kappa)
heavy: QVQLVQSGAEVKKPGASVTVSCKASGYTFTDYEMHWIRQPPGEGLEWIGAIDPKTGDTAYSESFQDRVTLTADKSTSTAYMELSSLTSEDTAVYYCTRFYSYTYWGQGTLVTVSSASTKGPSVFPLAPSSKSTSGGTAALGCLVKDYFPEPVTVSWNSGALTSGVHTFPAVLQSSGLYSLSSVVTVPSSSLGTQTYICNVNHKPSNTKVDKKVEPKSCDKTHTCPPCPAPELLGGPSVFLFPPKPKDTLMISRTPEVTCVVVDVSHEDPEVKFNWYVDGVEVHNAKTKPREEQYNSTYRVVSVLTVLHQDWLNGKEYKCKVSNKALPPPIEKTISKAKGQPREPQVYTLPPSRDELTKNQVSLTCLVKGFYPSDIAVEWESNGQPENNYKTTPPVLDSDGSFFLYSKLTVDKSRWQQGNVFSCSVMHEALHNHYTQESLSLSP
light: B1 light
notes: also called Ho Ab A330_05P
B28: GpH7-B3 variant A330_12R/GpL16-k0 (antibody, human IgG1, kappa)
heavy: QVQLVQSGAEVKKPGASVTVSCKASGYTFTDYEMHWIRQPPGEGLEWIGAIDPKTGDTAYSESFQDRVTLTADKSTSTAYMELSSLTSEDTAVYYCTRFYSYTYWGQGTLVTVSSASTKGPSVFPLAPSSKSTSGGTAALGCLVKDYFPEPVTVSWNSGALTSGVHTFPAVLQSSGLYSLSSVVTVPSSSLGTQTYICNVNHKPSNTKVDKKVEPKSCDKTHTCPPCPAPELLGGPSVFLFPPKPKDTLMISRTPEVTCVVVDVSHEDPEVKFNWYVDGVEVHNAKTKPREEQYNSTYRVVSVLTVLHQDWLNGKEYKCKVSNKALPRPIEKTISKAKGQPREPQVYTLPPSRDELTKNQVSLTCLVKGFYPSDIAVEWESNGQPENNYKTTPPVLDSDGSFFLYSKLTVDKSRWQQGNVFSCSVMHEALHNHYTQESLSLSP
light: B1 light
notes: also called Ho Ab A330_12R

What follows are binders tested against T1, FcγRIIa R (assay: SPR Biacore; vs GpH7-A5/GpH7-B3/GpL16-k0 =100).

He/Con_2aR	Binder
117 % of control	B1
131 % of control	B2
109 % of control	B3
114 % of control	B4
107 % of control	B5
106 % of control	B6
135 % of control	B7
174 % of control	B8
108 % of control	B9
103 % of control	B10
104 % of control	B11
116 % of control	B12
116 % of control	B13
110 % of control	B14
122 % of control	B15
122 % of control	B16
133 % of control	B17
134 % of control	B18
114 % of control	B19
111 % of control	B20

These binders were tested against T1, FcγRIIa R (assay: SPR Biacore; vs GpH7-B3/GpL16-k0 =100).
Experimental: Analysis of interaction between objective antibody and the FcγR was carried out using Biacore T100 (GE Healthcare). HBS-EP+ (GE Healthcare) was used as the running buffer, and the measurement temperature was set to 25° C. Chips produced by immobilizing the antigen peptide by the amine coupling method to a Series S Sencor Chip CM5 (GE Healthcare), or alternatively, chips produced by allowing preliminarily biotinylated antigen peptides to interact with and immobilize onto a Series S Sensor Chip SA (certified) (GE Healthcare) were used. Antibodies of interest were captured onto an antigen peptide-immobilized chip, and allowed to interact to each FcγR diluted with running buffer. To regenerate and repeatedly use the chip, the antibodies captured on the chip were washed off by reacting 10 mM glycine-HCl, pH 1.5.
The FcγR-binding activity of each antibody was assessed primarily using as an indicator the FcγR-binding activity and dissociation constant for FcγR.

Ho/Con_2aR	Binder
124 % of control	B21
106 % of control	B22
104 % of control	B23
120 % of control	B24
87.5 % of control	B25
106 % of control	B26
36.2 % of control	B27
101 % of control	B28
